T1: CD70 ECD (Homo sapiens, UniProt P32970)
T1 sequence (P32970 39-193 limits assumed): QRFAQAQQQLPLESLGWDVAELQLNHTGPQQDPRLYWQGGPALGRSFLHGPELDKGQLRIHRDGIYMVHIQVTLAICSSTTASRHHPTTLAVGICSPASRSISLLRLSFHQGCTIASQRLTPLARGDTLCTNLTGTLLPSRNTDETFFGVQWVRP

T2: rat CD70 extra-cellular domain (ECD) (Rattus norvegicus, UniProt M0R613)
T2 construct: human, rat, or mouse CD70 extra-cellular domain (ECD) linked to His tag; His tag; purchased ACRO systems
T2 sequence (M0R613 1-194): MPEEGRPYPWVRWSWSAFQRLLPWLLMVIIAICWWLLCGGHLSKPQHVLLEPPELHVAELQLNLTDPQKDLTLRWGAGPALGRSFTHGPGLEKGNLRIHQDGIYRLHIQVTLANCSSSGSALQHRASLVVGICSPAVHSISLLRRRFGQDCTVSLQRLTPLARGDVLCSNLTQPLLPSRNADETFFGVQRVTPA

T3: human CD70 extra-cellular domain (ECD) (Homo sapiens, UniProt P32970)
T3 construct: human, rat, or mouse CD70 extra-cellular domain (ECD) linked to His tag; His tag; purchased ACRO systems
T3 sequence (P32970 39-193 limits assumed): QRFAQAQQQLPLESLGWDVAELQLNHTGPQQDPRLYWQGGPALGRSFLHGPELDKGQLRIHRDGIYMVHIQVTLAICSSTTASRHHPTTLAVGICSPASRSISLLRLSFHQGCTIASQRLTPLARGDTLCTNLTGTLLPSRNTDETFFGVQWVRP

T4: mouse CD70 extra-cellular domain (ECD) (Mus musculus, UniProt O55237)
T4 construct: human, rat, or mouse CD70 extra-cellular domain (ECD) linked to His tag; His tag; purchased ACRO systems
T4 sequence (O55237 45-195): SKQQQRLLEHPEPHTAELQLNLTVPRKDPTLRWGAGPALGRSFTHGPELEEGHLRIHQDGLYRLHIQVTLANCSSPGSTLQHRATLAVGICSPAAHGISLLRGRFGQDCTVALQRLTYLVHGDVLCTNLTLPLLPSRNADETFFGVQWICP


Key:
CD70 ECD = target: T1, CD70 ECD; assay: Biacore affinity measurement on immobilized CD70 ECD; assay type: binding; details: 25° C., CD70 immobilized
Procedure: The immobilization of antigen CD70 ECD was performed at 25° C. with HBS-EP as the running buffer. Sensor chip surface of flow cells 1, 4 were activated by freshly mixed 50 mmol/L N-Hydroxy succinimide (NHS) and 200 mmol/L 1-ethyl-3-(3-dimethylaminopropyl) carbodiimide hydrochloride (EDC) for 420s (10 μL/min). Afterwards, CD70 antigen diluted in 10 mmol/L NaAC (pH 4.5) was injected into flow cell 4 to achieve conjugation of the appropriate Response Unit, while flow cell 1 was set as a blank. After the amine coupling reaction, the remaining active coupling sites on chip surface were blocked by 420s injection of 1 mol/L ethanolamine hydrochloride.
The assay was performed at 25° C. and the running buffer was HBS-EP. Diluted antibodies were injected over the surface of flow cells 1 and 4 during the association phase, followed by injecting running buffer as the dissociation phase. All the data were processed using Biacore T200 Evaluation software version 3.1. Flow cell 1 and a blank injection of buffer in each cycle were used as a double reference for Response Units subtraction. Kinetic data of the interaction between the antibodies and CD70 antigen were obtained through affinity measurement.

[1] = tested on: 786-O, Caki-1, U251 and DBTRG-05MG cells; assay: Antibody binding by flow cytometry, statements across all four tumor cell lines; parameters: species or system human; details: range over the four cell lines
Procedure: The lead antibodies were tested for binding to renal carcinoma cells and glioblastoma cells expressing CD70 on the cell surface by flow cytometry. Cell lines 786-O (ATCC® CRL-1932™, provided by COBIOER), Caki-1 (ATCC® HTB-46™, provided by COBIOER), U251 and DBTRG-05MG (ATCC® CRL-2020™, provided by COBIOER) were each tested for antibody binding. 786-O cells were cultured with RPMI 1640 medium (Gibco, Cat #11875093) containing of 10% FBS (Gibco, Cat #10099141) while Caki-1 cells were cultured with McCoy's 5a Modified medium (Gibco, Cat #16600082) containing 10% FBS. U251 cells were cultured with MEM medium containing of 10% FBS and 1% NEAA+1 mM sodium pyruvate. DBTRG-05MG cells were cultured with DMEM medium (Gibco, Cat #C11995500BT) containing of 10% FBS. Each of the lead antibodies and the controls were incubated for 30 mins with the different cell lines (3×10^5 cells per well) in 0.2 ml FACS buffer (1×PBS with 0.1% BSA) at 4° C. Then, the cells were pelleted, washed, and incubated at 4° C. for 30 mins with 100 μl of 1:200 diluted PE-conjugated anti human Fc (Abcam, Ab98596) in FACS buffer. The cells were pelleted again, washed with PBS, resuspended in FACS buffer and analyzed by flow cytometer (Beckman, CytoFLEX).

[2] = Hydrophobic interaction chromatography (HIC); assay type: physicochemical; details: full IgG; for Retention time: hydrophobicity by HIC
Procedure: Antibodies were purified from cleared cell culture supernatants using Protein A chromatography (Protein A resin slurry, 4.5 mL, Bogen, Cat #18-0010-02). Briefly, supernatants were prepared for affinity chromatography and loaded onto the columns and allowed to flow completely through the resin. The columns were washed with binding buffer containing 0.15M NaCl and 0.2M PB, PH7.0. Antibody was eluted with elution buffer containing 0.15M NaCl, 0.1M Glycine and 0.2M PB, PH 3.0. Fractions were collected and neutralized by the addition of 1/10 volume of 1M Tris, PH9.0. The fractions were dialyzed for 2 hours against 1×PBS. Purified antibody was quantified by absorbance at A280. Samples from each step of the protein A chromatography were applied onto 12% SDS-PAGE gels for reduced and non-reduced electrophoresis. The hydrophobicity was assessed with hydrophobic interaction chromatography (HIC) on a TSK gel Butyl-NPR, 4.6×100 mm with Butyl-NPR (Tosoh corporation) using a Waters HPLC 2695 system.

[3] = target: T2, rat CD70 extra-cellular domain (ECD); assay: Biolayer interferometry (BLI), rat CD70; assay type: binding
Procedure: (§1) Recombinant proteins consisting of human, rat, or mouse CD70 extra-cellular domain (ECD) linked to His tag was purchased (from ACRO systems). 69A7 and 2E7 (20 nM) were immobilized on anti-human IgG Fc biosensor tips (ForteBio). Binding assays using one concentration (100 nM) of recombinant protein in solution were performed using Octet RED (ForteBio). Association time was set at 180s and dissociation time was set at 300s. Binding affinity was calculated using ForteBio Data Acquisition 6.3 software. Affinity was derived by fitting the kinetic data to a 1:1 Langmuir binding model utilizing global fitting algorithms. […] Binding assays for 2E7 using multiple dilutions (from 200 nM down to 3.13 nM) of species' recombinant CD70 ECD proteins in solution were also performed using the same method.

[4] = target: T3, human CD70 extra-cellular domain (ECD); assay: Biolayer interferometry (BLI), human CD70; assay type: binding
Procedure: as §1

[5] = target: T4, mouse CD70 extra-cellular domain (ECD); assay: Biolayer interferometry (BLI), mouse CD70; assay type: binding
Procedure: as §1

[6] = one concentration (100 nM), Table 9
[7] = Hu CD70 100 nM, one concentration

Molecule | Rmax (RU) (CD70 ECD) | ka (CD70 ECD) [M⁻¹ s⁻¹] | kd (CD70 ECD) [s⁻¹] | EC50 relative to that of antibody 69A7 [1] | hydrophobicity compared with the parent antibody 69A7 ([2]; HIC) | Retention time [2] [min] | Response ([3]; Rat CD70 100 nM, one concentration, *Response below range of quantification) | ka ([3]; Rat CD70 100 nM, one concentration, response below range of quantification) [M⁻¹ s⁻¹] | cross-reactivity to rat CD70 [3, 6] | Response [4, 7] | ka [4, 7] [M⁻¹ s⁻¹] | Kd ([4]; human CD70, one concentration (100 nM), read-out: equilibrium dissociation constant (KD)) [nM] | Response ([5]; MS CD70 100 nM, one concentration, *Response below range of quantification) | ka ([5]; MS CD70 100 nM, one concentration, response below range of quantification) [M⁻¹ s⁻¹] | cross-reactivity to mouse CD70 [5, 6]
Vorsetuzumab (antibody, V domains shown, Synthetic h1F6 VH amino acid sequence; Synthetic h1F6 VL amino acid sequence) VH: QVQLVQSGAEVKKPGASVKVSCKASGYTFTNYGMNWVRQAPGQGLKWMGWINTYTGEPTYADAFKGRVTMTRDTSISTAYMELSRLRSDDTAVYYCARDYGDYGMDYWGQGTTVTVSS VL: DIVMTQSPDSLAVSLGERATINCRASKSVSTSGYSFMHWYQQKPGQPPKLLIYLASNLESGVPDRFSGSGSGTDFTLTISSLQAEDVAVYYCQHSREVPWTFGQGTKVEIK | 19.27 | 45100 | 0.00236 | – | – | – | – | – | – | – | – | – | – | – | –
2A4P0L1: new VH/VL combination derived from the VH of 2A4 and the VL of 2D2 (antibody, V domains shown) VH: QVQLQESGPGLVKPSETLSLTCTVSGGSVSSDYYYWSWIRQPPGKGLEWLGYIYYSGSTNYNPSLKSRVTISVDTSKNQFSLKLRSVTTADTAVYYCARGDGDYGGNVFPYWGQGTLVTVSS VL: EIVLTQSPATLSLSPGERATLSCRASQSVSSYLAWYQQKPGQAPRLLIFDASNRATGIPARFSGSGSGTDFTLTISSLEPEDFAVYYCQQRLKFPLTFGGGTKVEIK | 45.47 | 51000 | 0.00197 | 1.7-2.2 times | slightly more hydrophobic than the parent antibody 69A7 | 9.56 | – | – | – | – | – | – | – | – | –
69A7: parent anti-CD70 antibody (U.S. Pat. No. 8,124,738B2), VH/VL SEQ ID NOs: 1 and 2 (antibody, V domains shown, Synthetic 69A7 VH amino acid sequence; Synthetic 69A7 VL amino acid sequence) VH: QVQLQESGPGLVKPSETLSLTCTVSGGSVSSDYYYWSWIRQPPGKGLEWLGYIYYSGSTNYNPSLKSRVTISVDTSKNQFSLKLRSVTTADTAVYYCARGDGDYGGNCFDYWGQGTLVTVSS VL: EIVLTQSPATLSLSPGERATLSCRASQSVSSYLAWYQQKPGQAPRLLIFDASNRATGIPARFSGSGSGTDFTLTISSLEPEDFAVYYCQQRSNWPLTFGGGTKVEIK | 38.01 | 6330 | 0.00198 | – | – | 8.83 | *0.0198 | 94250 | no cross-reactivity | 0.3334 | 338700 | 2.9 | *0.0113 | 1494 | no cross-reactivity
2A4: anti-CD70 antibody clone, VH SEQ 3 and VL SEQ 4; scFv and full human IgG1/kappa (antibody, V domains shown) VH: QVQLQESGPGLVKPSETLSLTCTVSGGSVSSDYYYWSWIRQPPGKGLEWLGYIYYSGSTNYNPSLKSRVTISVDTSKNQFSLKLRSVTTADTAVYYCARGDGDYGGNVFPYWGQGTLVTVSS VL: EIVLTQSPATLSLSPGERATLSCRASQSVSSYLAWYQQKPGQAPRLLIFDASNRATGIPARFSGSGSGTDFTLTISSLEPEDFAVYYCQQRSNWPLTFGGGTKVEIK | – | – | – | – | – | 9.06 | – | – | – | – | – | – | – | – | –
